Consider one molecule from article PMC2845643 (2011).

Common to all, as to test: IAANS fluorescence titration
The target in test [1] is cardiac troponin C (M45Q TnC IAANS T53C) (Homo sapiens, UniProt P63316).
Test [2] addresses cardiac troponin C (TnC IAANS T53C) (Homo sapiens, UniProt P63316).
The target in test [3] is cardiac troponin C (F20Q TnC IAANS T53C) (Homo sapiens, UniProt P63316).
Test [4] concerns the target cardiac troponin C (L48Q TnC IAANS T53C) (Homo sapiens, UniProt P63316).
Test [5] deals with cardiac troponin C (V44Q TnC IAANS T53C) (Homo sapiens, UniProt P63316).

B1: cardiac troponin I peptide TnI128-180 128-180 (protein)
chain: LTQKIFDLRGKFKRPTLRRVRISADAMMQALLGARAKESLDLRAHLKQVKKED
The term Kd denotes the equilibrium constant for the complex coming apart. In the case of B1, the dissociation constant Kd was 289 nM in test [1]; 200 nM in test [2]; 318 nM in test [3]; 268 nM in test [4]; 262 nM in test [5].
